# Read-outs that look alike come from different tables or passages of the source.
# T1: mouse TMPRSS6 expressed on HEK293T cells, MoTMPRSS6-(His)6 (mouse, UniProt Q9DBI0 1-811)
# T1 construct: HEK293T cells stably expressing the construct; also called murine TMPRSS6
# T1 sequence: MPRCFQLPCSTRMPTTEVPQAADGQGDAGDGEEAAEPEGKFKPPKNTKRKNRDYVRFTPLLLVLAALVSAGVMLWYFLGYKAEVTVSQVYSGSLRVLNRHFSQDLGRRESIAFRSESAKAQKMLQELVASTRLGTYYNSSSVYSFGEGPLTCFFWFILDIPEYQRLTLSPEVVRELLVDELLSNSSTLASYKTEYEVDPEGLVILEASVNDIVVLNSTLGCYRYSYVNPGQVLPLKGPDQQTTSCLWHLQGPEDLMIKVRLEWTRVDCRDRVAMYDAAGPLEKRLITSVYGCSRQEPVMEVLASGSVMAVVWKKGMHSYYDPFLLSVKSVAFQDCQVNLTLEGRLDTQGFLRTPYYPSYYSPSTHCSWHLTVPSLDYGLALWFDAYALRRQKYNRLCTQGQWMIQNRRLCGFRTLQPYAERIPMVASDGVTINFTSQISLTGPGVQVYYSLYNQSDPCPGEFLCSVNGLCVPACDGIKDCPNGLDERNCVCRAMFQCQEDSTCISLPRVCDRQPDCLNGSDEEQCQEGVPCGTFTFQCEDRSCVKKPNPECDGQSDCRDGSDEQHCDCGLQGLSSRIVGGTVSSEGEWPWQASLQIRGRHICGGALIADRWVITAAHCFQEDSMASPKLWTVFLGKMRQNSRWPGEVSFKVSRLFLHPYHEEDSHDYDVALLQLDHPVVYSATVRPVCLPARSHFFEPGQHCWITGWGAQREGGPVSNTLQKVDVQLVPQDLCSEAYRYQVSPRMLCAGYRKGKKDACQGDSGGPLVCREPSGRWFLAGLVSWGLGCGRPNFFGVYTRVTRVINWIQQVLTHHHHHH
# T2: mouse TMPRSS6 expressed on HEK293T cells, MoTMPRSS6-(His)6 (UniProt Q9DBI0 1-811)
# T2 chain: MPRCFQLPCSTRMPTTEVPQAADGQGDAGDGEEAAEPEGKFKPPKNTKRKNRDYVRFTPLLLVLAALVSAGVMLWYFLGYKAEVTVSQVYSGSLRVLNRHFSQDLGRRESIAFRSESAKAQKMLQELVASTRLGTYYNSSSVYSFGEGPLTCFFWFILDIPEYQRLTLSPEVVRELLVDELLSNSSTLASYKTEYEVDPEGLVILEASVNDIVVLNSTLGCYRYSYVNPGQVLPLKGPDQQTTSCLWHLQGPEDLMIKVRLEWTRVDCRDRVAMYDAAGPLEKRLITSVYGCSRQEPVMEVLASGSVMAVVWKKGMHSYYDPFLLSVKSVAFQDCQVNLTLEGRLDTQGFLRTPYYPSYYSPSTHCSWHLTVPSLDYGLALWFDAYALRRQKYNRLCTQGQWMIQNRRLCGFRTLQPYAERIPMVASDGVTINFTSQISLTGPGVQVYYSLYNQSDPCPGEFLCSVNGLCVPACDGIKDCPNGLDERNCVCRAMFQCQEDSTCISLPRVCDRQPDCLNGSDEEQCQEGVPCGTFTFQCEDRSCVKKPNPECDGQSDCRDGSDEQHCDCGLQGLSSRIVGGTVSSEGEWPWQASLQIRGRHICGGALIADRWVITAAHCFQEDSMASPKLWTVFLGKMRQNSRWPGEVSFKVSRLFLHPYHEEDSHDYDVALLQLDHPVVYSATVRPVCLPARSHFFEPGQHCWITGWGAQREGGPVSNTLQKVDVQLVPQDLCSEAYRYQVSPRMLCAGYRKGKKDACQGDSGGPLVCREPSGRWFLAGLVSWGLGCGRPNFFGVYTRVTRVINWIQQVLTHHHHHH
# Columns and labels:
# [1] = target: T1, mouse TMPRSS6 expressed on HEK293T …; experiment: summary of Example 4 (FACS, cell surface ELISA)
# Method: (§1) Selected anti-TMPRSS6 antibodies were tested to determine whether any are capable of binding to TMPRSS6 from mouse and/or cynomolgus monkey. HEK293T cells stably expressing human TMPRSS6 (HuTMPRSS6-(His)₆) (generated by LakePharma Inc as described above), HEK293T cells stably expressing mouse TMPRSS6 (MoTMPRSS6-(His)₆) (SEQ ID NO: 98) (generated by LakePharma Inc as described above) and HEK293T cells transiently expressing cynomolgus monkey TMPRSS6 (CynoTMPRSS6-(His)₆) (SEQ ID NO: 99) (generated in house) were collected. HEK293T cells stably expressing human TMPRSS6 were used as a positive control and HEK293T cells were used as a negative control (as described above). Cells were blocked with dPBS+3% BSA before incubation with anti-TMPRSS6 antibodies diluted in dPBS+3% BSA. After incubation, cells were washed with dPBS and followed by another incubation with goat anti-mouse IgG conjugated with AlexaFluor-488 as a 2° antibody (Invitrogen). At last, cells were washed with dPBS to remove unbound antibody, re-suspended with dPBS+1 mM EDTA, and then subjected to FACS analysis using a NOVOCYTE® Flow Cytometer (ACEA Biosciences, Inc., San Diego CA). Bound antibody was determined by excitation at 488 nm and measurement of emission (FITC-A) at 530 nm. Results for these assays are shown in histogram plots in FIGS. 4A-4I.
# (§2) HEK293T cells stably expressing mouse TMPRSS6 (generated by LakePharma Inc as described above, FIGS. 4J, 4L, 4N, 4P, 4R, 4T) or cynomolgus monkey (generated in house as described above, FIGS. 4K, 4M, 4O, 4Q, 4S, 4U) were fixed with methanol (100%), and washed with dPBS (Dulbecco's phosphate-buffered saline, Corning Cellgro) before incubation with various concentrations of anti-TMPRSS6 antibodies and their humanized variants diluted in BSA medium (DMEM+1% Pen/Strep+10 mM HEPES+1 mg/ml BSA (Sigma-Aldrich)). Purified mouse IgG (FIGS. 4J-4O) or Human IgG1 (FIGS. 4P-4U) was used as a control.
# [2] = target: T2, mouse TMPRSS6 expressed on HEK293T …; experiment: cell surface ELISA
# [3] = target: T2, mouse TMPRSS6 expressed on HEK293T …; experiment: cell surface ELISA
# [4] = target: T1, mouse TMPRSS6 expressed on HEK293T …; experiment: summary of Example 4 (cell surface ELISA)
# Method: as §2, with “control. After incubation, cells were washed with BSA medium and then incubated with goat anti-mouse (Invitrogen, FIGS. 4J-4O) or anti-human (Millipore, FIGS. 4P-4U) IgG conjugated with HRP as a 2° antibody. Finally, cells were washed with dPBS to remove unbound antibody and color developed with ELISA liquid substrate (Sigma-Aldrich), followed by stopping the reaction with addition of the same volume of […] 1M H₂SO₄. Bound antibody was measured by absorbance at OD₄₅₀ₙₘ.” for “control.”
# [5] = target: T1, mouse TMPRSS6 expressed on HEK293T …; experiment: cell surface ELISA on methanol-fixed HEK293T cells expressing mouse TMPRSS6
# Method: as §2, with “control. After incubation, cells were washed with BSA medium and then incubated with goat anti-mouse (Invitrogen, FIGS. 4J-4O) or anti-human (Millipore, FIGS. 4P-4U) IgG conjugated with HRP as a 2° antibody. Finally, cells were washed with dPBS to remove unbound antibody and color developed with ELISA liquid substrate (Sigma-Aldrich), followed by stopping the reaction with addition of the same volume of […] 1M H₂SO₄. Bound antibody was measured by absorbance at OD₄₅₀ₙₘ.” for “control.”
# [6] = target: T1, mouse TMPRSS6 expressed on HEK293T …; experiment: FACS on HEK293T cells stably expressing MoTMPRSS6-(His)6
# Method: as §1
binding result [1],EC50 [2] [µg/mL],EC50 [3] [µg/mL],binding result [4],Binder,other results
binds,0.07,,,"MWTx-003 anti-TMPRSS6 monoclonal antibody (antibody, mouse IgG2b, kappa, V domains shown, Mouse monoclonal antibody from hybridoma (ATCC PTA-126761); The recombinant version r4K12B has the same HC and LC; also called r4K12B; recombinant MWTx-003) VH: EVQLQQSGAELVKPGASVKLSCTASGFNIEDYYIHWVKERTEQGLEWIGRIDPEDGETTYAPQFQGKATIIPDTSSNTAYMQLSSLTSEDAAVYYCARSIYLDPMDYWGQGTSVTVSS VL: DIVMTQSHKFMSTSVGDRVSITCKASQDVTTAVAWYQQKPGQSPKILIYWATTRHTGVPDRFTGSISGTTYILTISSVQAEDLALYYCQQHYSTPYTFGGGTKLEIKR",
,,0.03,binds,"humanized anti-TMPRSS6 antibody variant hzMWTx-001 Var (antibody, human IgG1, kappa, N297A, V domains shown, Human IgG1 / kappa) VH: EVQLVQSGAEVKKPGASVKVSCKASGYTFTSYWITWVRQAPGQRLEWIGNIYPGSGSTYYNEKFKSKATITRDTSSRTAYMELSSLRSEDTAVYYCAPYDADYAMDYWGQGTLVTVSS VL: DIQMTQSPSSLSASVGDRVTITCKASQDISNYLSWFQQKPGKAPKLLIYRANRLVEGVPSRFSGSGSGTDFTLTISSLQPEDFATYFCLQYDEFPLTFGGGTKVEIKR",
,,,,"humanized anti-TMPRSS6 antibody variant hzMWTx-002 Var (antibody, human IgG1, kappa, N297A, V domains shown, Human IgG1 / kappa) VH: EVQLVQSGAEVKKPGASVKVSCKASGFNIKDYYIHWVRQATGQGLEWMGRIDPEDAESEYAPKFQGRVTITADTSTDTAYMELSSLRSEDTAVYYCTRGDSMMVTYFDYWGQGTLVTVSS VL: DIQMTQSPSSLSASVGDRVTITCKASQDVSTAVAWYQQKPGKAPKLLIYWAFTRHTGVPSRFSGSGSGTDYALTISSLQPEDFATYYCQQHYRSPWTFGGGTKVEIKR",binding result [5]: no binding
binds,0.25,,,"MWTx-001 anti-TMPRSS6 monoclonal antibody (antibody, mouse IgG2a, kappa, V domains shown, Mouse monoclonal antibody from hybridoma (ATCC PTA-126759)) VH: QVQLQQPGAELAKPGASVKMSCKASGYTFTSYWITWVKQRPGQDLEWIGNIYPGSGSTYYNEKFKSKATLTVDTSSRTAYMQLSSLTSADSAVYYCAPYDSDYAMDYWGQGTSVTVSS VL: DIKMTQSPSSMYASLGERVTITCKASQDINNYLSWFQQKPGKSPKTLIYRANRLVDGVPSRVSGSGSGQDYSLTISSLEYEDVGIYFCLQYDEFPLTFGAGTKLELKR",
,,,,"MWTx-002 anti-TMPRSS6 monoclonal antibody (antibody, mouse IgG2b, kappa, V domains shown, Mouse monoclonal antibody from hybridoma (ATCC PTA-126760)) VH: EVQLQQSGAELVKPGASVKLSCTASGFNIKDYYIHWVKERTEQGLEWFGRIDPEDGESEYAPKFQGKATLTADTSSNTAYLQLSSLTSEDTAVYYCTRGDSMMVTYFDYWGQGTTLTVSS VL: DIVMTQSHKFMSTSVGDRVSITCKASQDVSTAVAWYQQKPGQSPKLLIYWAFTRHTGVPDRFTSTGSGTDYALTISSVQAEDLALYYCQQHYRSPWTFGGGTKLEIKR",binding result [6]: no binding
,,0.31,binds,"humanized anti-TMPRSS6 antibody variant hzMWTx-003 Var (antibody, human IgG1, kappa, L234A L235A, V domains shown, Human IgG1 / kappa) VH: QVQLVQSGAEVKKPGASVKVSCKASGFNIEDYYMHWVRQAPGQRLEWMGRIDPEDAETTYSPKFQGRVTIIPDTSANTAYMELSSLRSEDTAVYYCARSIYLDPMDYWGQGTLVTVSS VL: DIQMTQSPKSLSASVGDRVTITCRASQDVTTALAWYQQKPGQSPKLLIYWATTRHSGVPSRFSGSGSGTDFTLTISSLQPEDFATYYCQQHYSTPYTFGQGTKLEIKR",

# — patent US20250136718A1 (MABWELL THERAPEUTICS, published 2025)
